# Laboratory results from the supplement of paper PMC12042874.
# ± gives the uncertainty stated by the source.
# Assay: amyloid nucleation score (Sup35N fusion, yeast selection) (log enrichment); library NNK1; higher = more nucleation; inactive = no reads after selection
# In short: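 The nucleation score is the DiMSum log enrichment of output over input reads, centred on the mode score of non-aggregating sequences. Only sequences with 100 or more input reads were scored, using Illumina sequencing of input and output plasmid inserts. Psi-negative yeast expressing Sup35N fused to peptides of 20 random codons were induced 24 hours with 100 μM copper sulfate and grown 7 days at 30°C on medium lacking adenine and uracil.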
row,Substance,amyloid nucleation score
1,TSRGSGSVWLDFFSHHGKIG,-0.218 ± 1.4
2,TNIALLV,0.847 ± 0.42
3,MGRMS,0.22 ± 0.69
4,LFMLSIHFGVHILSRLW,1.57 ± 0.16
5,YNSRGDCRTLVKRGMGNFCA,0.191 ± 0.32
6,NIKANQLKGTWKRRTMYRWS,-0.271 ± 0.97
7,ILESRVPCCLKRGLNKEIGL,0.672 ± 0.46
8,FCPTVETYNVW,2.12 ± 0.14
9,LLMYLLHSCYNVMHCLCLNF,0.128 ± 0.21
10,ASFSNCWG,0.486 ± 0.32
11,TRNMHKCCNTMTTLLSVLGS,-0.186 ± 0.75
12,KSSGALDMFSDTNMV,-0.894 ± 0.39
13,CNCAKSNVRCLFLFFDGQTR,0.775 ± 0.92
14,FWVQNMVGNFFNYYFDRGNQ,7.791 ± 0.045
15,SKSLKYICMYFQHTNSLASI,0.241 ± 1.2
16,GFRLMLFVRTM,1.04 ± 0.45
17,AIIDDHSVCYNVLKRFSNFG,1.5 ± 0.66
18,TFTGDKIPIYSGVTVMASGM,0.715 ± 0.84
19,DTAWNLVQSVS,0.496 ± 0.7
20,SWDSLGHYNGAIE,-0.268 ± 0.54
21,SRYALLIYVLEDGCLAVLKP,0.562 ± 1.2
22,LANIYSSNVDISFFDPYCST,4.35 ± 0.085

row,Substance,amyloid nucleation score
1,AFIARVTRFGVTRDPLIRQ,inactive
2,WLNHKRIVINTQLMLYSPGC,4.68 ± 0.11
3,RTICKVIFVSEVKSLFWNMS,1.87 ± 0.41
4,ARVSGILLVMLCRYHFGLRE,0.102 ± 0.69
5,DRVLAVVYAAFAGFRRCMRR,inactive
6,GLCDNHINVVVVS,0.788 ± 0.81
7,STDMYVPVPDTDWIICLRQL,-0.23 ± 0.56
8,SHFGNPLKIPVFNRWTQHKA,-0.263 ± 0.49
9,AFPRARGYMG,-0.575 ± 0.37
10,VSINGGEYMSEFAGICGPVD,1.83 ± 0.46
11,RGGRRDWLCIFRGRLGVA,-1.08 ± 0.78
12,MWHERVGDVTVAHSNVGVMI,3.85 ± 0.082
13,VVVFDKR,-0.041 ± 1
14,SQEHCMVNTK,0.112 ± 0.59
15,YSIPNDLNPSCKSHLMPRGH,1.23 ± 0.41
16,MFHSYVSLGLCKW,0.371 ± 0.84
17,VTMSDLATHNYREMNSLFSF,0.091 ± 0.28
18,LMTLLSSLSPAQSSLPT,1.27 ± 0.8
19,LRALSYWIPARTPIVEGYAK,-0.333 ± 0.32
20,RIAVWSSGSYCMYYTCWCNH,-0.191 ± 0.24
21,FDSLVSREFVP,-0.887 ± 1.5
22,IYMVSC,0.077 ± 0.27

row,Substance,amyloid nucleation score
1,IYRFSCETHIFQYSRQVLFG,0.786 ± 0.63
2,KTFTNGLCDPDVYGTIWAM,0.488 ± 0.36
3,NNRHGYFNFCWWKEFLVKRE,inactive
4,LSRSYYNQFLTDFKGSGTYM,-0.269 ± 0.64
5,AWSRLSVNPVVEENVMAIAL,0.909 ± 0.69
6,FSHAGD,-0.494 ± 0.71
7,PGSANASLTERFLMKMVGED,0.053 ± 0.78
8,FNISFCIASSYVNTIGKQQG,3.32 ± 0.12
9,RTSPSYGIPNWAELLRVE,-0.311 ± 0.69
10,DLYGRLLNWNTPYKRRWKNR,-0.491 ± 0.46
11,FFDSRFLFDSRTGSMYA,-1.71 ± 1.5
12,TFVCIMFLDSSFSSENYGRL,1.7 ± 0.16
13,KKGVIGKG,-2.31 ± 1.6
14,YYCLKPRGQSIGYGGNCLKA,0.134 ± 0.83
15,FLTAAWTSGHDGREFSPRPF,2.61 ± 0.16
16,QVYEDGRAICHLTLGRDCNL,2.22 ± 0.47
17,MILTTPAAERLLYYILPLRD,-0.616 ± 0.81
18,HWRTCCWQEMLLMSALSRQG,-0.252 ± 0.46
19,FTNRTIFFV,-0.023 ± 0.91
20,GYELSMKATIRVVCRAIYFC,0.62 ± 0.41
21,AAFTSSNYMFGFYFGLWVSN,1.55 ± 0.45
22,SLYAQVCWRSVEFYPRLFPE,2.26 ± 0.12

row,Substance,amyloid nucleation score
1,FFFKAFDLATTSLGRYNMCN,-0.66 ± 0.52
2,TSDRTKSVLMVYSWV,-0.576 ± 0.92
3,SIFVG,0.353 ± 1.2
4,YCAFTSLRIIRISNIFIRHE,inactive
5,AWDFWTWVSSGVWWYDASVR,-0.398 ± 0.91
6,WPGMPRS,1.17 ± 0.35
7,FLQFF,-0.656 ± 0.47
8,HSFFMFP,-0.39 ± 0.73
9,LEINIVACVDTA,-0.559 ± 0.36
10,NLLQLYDICAGCVRYSRWDG,1.53 ± 0.16
11,VCFALSI,-0.098 ± 0.46
12,AFGAVFRGEKR,0.241 ± 1.4
13,NLSSLSWVTIYKNFCAIMSS,-0.378 ± 0.58
14,ADRWVLSFMEPCAT,inactive
15,WISYVQNTIYRFAFEESCLG,1.31 ± 0.43
16,GRLHRRDMIGRHVDDSGPMS,inactive
17,RSFSECLMSGHTIFQFGMYM,4.26 ± 0.14
18,LRREVINWDQRFSFLKSFTW,2.89 ± 0.15
19,LCARFWDCRFKVQ,0.142 ± 1.4
20,GVACTARCMCKFNRHPGVCE,-0.274 ± 1.1
